According to PMC6687543 (Structure (London, England : 1993), 2019):

Target: T1, preformed binary complex IL-18/IL-18Rα-ECD ( | human, UniProt Q14116 37-193; Q13478 22-329)
T1 sequence (looked up) 1: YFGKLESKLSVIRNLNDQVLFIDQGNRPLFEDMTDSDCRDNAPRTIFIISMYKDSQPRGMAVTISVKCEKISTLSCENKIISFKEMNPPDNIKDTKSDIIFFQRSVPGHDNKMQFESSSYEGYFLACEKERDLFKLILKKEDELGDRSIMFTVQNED
T1 sequence (looked up) 2: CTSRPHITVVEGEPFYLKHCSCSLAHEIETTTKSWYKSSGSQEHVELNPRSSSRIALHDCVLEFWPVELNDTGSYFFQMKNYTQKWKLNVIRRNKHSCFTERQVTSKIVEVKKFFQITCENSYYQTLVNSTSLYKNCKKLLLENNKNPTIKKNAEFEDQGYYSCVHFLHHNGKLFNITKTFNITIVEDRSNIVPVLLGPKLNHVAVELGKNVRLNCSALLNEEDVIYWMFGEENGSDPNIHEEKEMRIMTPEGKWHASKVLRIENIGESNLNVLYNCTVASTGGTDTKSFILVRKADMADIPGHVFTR
Assay: SPR

B1: IL-18Rβ-ECD (extracellular domain of IL-18 receptor beta), wild type (receptor, human, UniProt O95256 20-354, looked up)
chain: FNISGCSTKKLLWTYSTRSEEEFVLFCDLPEPQKSHFCHRNRLSPKQVPEHLPFMGSNDLSDVQWYQQPSNGDPLEDIRKSYPHIIQDKCTLHFLTPGVNNSGSYICRPKMIKSPYDVACCVKMILEVKPQTNASCEYSASHKQDLLLGSTGSISCPSLSCQSDAQSPAVTWYKNGKLLSVERSNRIVVDEVYDYHQGTYVCDYTQSDTVSSWTVRAVVQVRTIVGDTKLKPDILDPVEDTLEVELGKPLTISCKARFGFERVFNPVIKWYIKDSDLEWEVSVPEAKSIKSTLKDEIIERNIILEKVTQRDLRRKFVCFVQNSIGNTTQSVQLKE
modifications: biotin (biotinylated IL-18Rβ-ECD, site not stated)
- binding result: binds
